Experimental data taken from publication PMC7555452, “Functional Characterization of a Putative RNA Demethylase ALKBH6 in Arabidopsis Growth and Abiotic Stress Responses”.

T1: ALKBH6 (Arabidopsis thaliana, UniProt Q9SUP1 1-241)
T1 sequence: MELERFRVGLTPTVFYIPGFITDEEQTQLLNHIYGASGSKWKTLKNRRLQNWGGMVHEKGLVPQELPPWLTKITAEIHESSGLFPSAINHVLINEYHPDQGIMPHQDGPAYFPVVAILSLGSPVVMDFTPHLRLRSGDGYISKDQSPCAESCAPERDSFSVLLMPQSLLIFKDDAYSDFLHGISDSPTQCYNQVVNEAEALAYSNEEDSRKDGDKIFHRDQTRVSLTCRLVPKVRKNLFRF


These binders were tested against T1, ALKBH6 (assay: EMSA; 3, 5, 7 uM protein; 10 mM Tris-HCl pH 8.0, 150 mM NaCl, 1.0 mM EDTA, 10% glycerol; 5.0 pmol RNA in 20 uL, on ice 30 min; 6% native PAGE, 0.25x TBE, 4 °C). Conditions: protein: recombinant; tags: His-TF (pCold TF) fusion, cleaved with HRV 3C protease; Ni-NTA purified; label: 5'-fluorescein.

| Binder | binding result |
| --- | --- |
| CGUAGGCUACAGAGAAGCCUU (ssRNA) [MAT2A RNA unmodified] | binds |
| GAAUCCGAACUAGUUCU (ssRNA) [SOS3 RNA unmodified] | binds |
| GGACGCUUCUUCGACCU (ssRNA, m5C at position 9) [m5C motif RNA m5C] | binds |
| CGUAGGCUACAGAGAAGCCUU (ssRNA, m6A at position 11) [MAT2A RNA m6A] | binds |
| GGACGCUUCUUCGACCU (ssRNA) [m5C motif RNA unmodified] | binds |
| GAAUCCGAACUAGUUCU (ssRNA, m6A at position 9) [SOS3 RNA m6A] | binds |
